For data set [1], the target named is deglycosylated recombinant sterol esterase from Ophiostoma piceae (OPE* treated with Endo H in non-denaturing conditions) (Ophiostoma piceae). Description: AUC; sedimentation velocity; purified protein 200 μg/mL in 25 mM sodium phosphate buffer pH 7.0, aqueous solution without detergent.
Data set [2] deals with recombinant sterol esterase from Ophiostoma piceae expressed in Pichia pastoris (Ophiostoma piceae). Described as above.
Data set [3] shares this target. Briefly: AUC; sedimentation equilibrium; purified protein 200 μg/mL in 25 mM sodium phosphate buffer pH 7.0, aqueous solution without detergent.
Substrate in data set [4]: CCCCCCCCCCCCCCCC(=O)Oc1ccc([N+](=O)[O-])cc1
Briefly: purified protein. Format: biochemical, Ophiostoma piceae. To be noted: 100 mM sodium phosphate pH 7.0, 0.15 M NaCl, 1% (v/v) Genapol X-100, 25°C.

Substrate in data set [5]: CCCCC/C=C\C/C=C\CCCCCCCC(=O)O[C@H]1CC[C@@]2(C)C(=CC[C@H]3[C@@H]4CC[C@H]([C@H](C)CCCC(C)C)[C@@]4(C)CC[C@@H]32)C1
Briefly: pH-stat titration of released fatty acid. It is filed as biochemical, Ophiostoma piceae. The conditions noted are these: 1 mM Tris-HCl pH 7.0, 0.15 M NaCl, 5% (v/v) Genapol X-100, 25°C, substrate emulsified in detergent. An excerpt: (§1) pH-stat titration of released fatty acid on OPE* (recombinant sterol esterase from Ophiostoma piceae)

Substrate in data set [6]: CCCC(=O)OCC(COC(=O)CCC)OC(=O)CCC
Briefly: pH-stat titration of released fatty acid. To be noted: 1 mM Tris-HCl pH 7.0, 0.15 M NaCl, 5% (v/v) Genapol X-100, 25°C, substrate emulsified in detergent. Format: biochemical, Ophiostoma piceae.
From the text: as §1

Substrate in data set [7]: CCCCCCCC/C=C\CCCCCCCC(=O)OCC(COC(=O)CCCCCCC/C=C\CCCCCCCC)OC(=O)CCCCCCC/C=C\CCCCCCCC
Description: pH-stat titration of released fatty acid. Format: biochemical, Ophiostoma piceae. To be noted: 1 mM Tris-HCl pH 7.0, 0.15 M NaCl, 5% (v/v) Genapol X-100, 25°C, substrate emulsified in detergent.
From the text: as §1

Substrate in data set [8]: CCCC(=O)O[C@H]1CC[C@@]2(C)C(=CC[C@H]3[C@@H]4CC[C@H]([C@H](C)CCCC(C)C)[C@@]4(C)CC[C@@H]32)C1
Description: pH-stat titration of released fatty acid. Format: biochemical, Ophiostoma piceae. To be noted: 1 mM Tris-HCl pH 7.0, 0.15 M NaCl, 5% (v/v) Genapol X-100, 25°C, substrate emulsified in detergent.
From the text: as §1

Substrate in data set [9]: CCCCCCCC/C=C\CCCCCCCC(=O)O[C@H]1CC[C@@]2(C)C(=CC[C@H]3[C@@H]4CC[C@H]([C@H](C)CCCC(C)C)[C@@]4(C)CC[C@@H]32)C1
Description: pH-stat titration of released fatty acid. Format: biochemical, Ophiostoma piceae. To be noted: 1 mM Tris-HCl pH 7.0, 0.15 M NaCl, 5% (v/v) Genapol X-100, 25°C, substrate emulsified in detergent.
From the text: as §1

These results are taken from paper PMC3514274, “Recombinant sterol esterase from Ophiostoma piceae: an improved biocatalyst expressed in Pichia pastoris” (Microbial Cell Factories, 2012).

As a reminder, the stoichiometry N is the number of molecules, sites or subunits per partner or assembly. Regarding “deglycosylated recombinant sterol esterase from Ophiostoma piceae (OPE* treated with Endo H in non-denaturing conditions) (enzyme)”, the stoichiometry N in data set [1] stood at 2.
Turning to “recombinant sterol esterase from Ophiostoma piceae expressed in Pichia pastoris (enzyme)”, the stoichiometry N in data set [2] and in data set [3] was 2 throughout.

B1: OPE* (recombinant sterol esterase from Ophiostoma piceae) (Ophiostoma piceae) (protein)
chain: TTVNVNYPEGEVVGVSVLGIESFRGVPFAQPPVGNLRLKPPVRYTENIGTKDTTGIGPSCPQMYLSTGNGELLFQLVGNLINIPLFQTATLSSEDCLTLNIQRPAGTTSNSSLPVLFWIFGGGFELGTNQYYDGIDLLTEGISLGEPFIFVAINYRVGGFGFLGGKEIKADGSSNLGLLDQRIALEWVADNIASFGGDPSKVTIWGESAGSISVFDQMALYGGNNKYKGKALFRGGIMNSGSVVPAAPVDGVKAQAIYDHVVSEAGCAGTSDTLACLRTVDYTKFLTAVNSVPGIVSYSSIALSYLPRPDGVVLIDSPEEIVKNKQYAAVPMIIGDQEDEGTLFAVLPNNITSTAKIVQYFQDLYFYNATKEQLTAFVNTYPTDITAGSPFNTGIFNELYPGFKRLAAILGDMTFTLARRAFLQLCSEVNPDVPSWSYLASYDYGFPFLGTFHATDILQVFYGVLPNYASGSIQKYYINFVTTGDPNKGAAVDIQWPQWSAKKNILQIYATKAVIVADNFRAKSYEYLYNNIGIFRI
notes: N-terminus (EA)EAYVEF + TTVNVNYPE (6 or 8 extra residues, mixed); monomer/dimer, monomeric in Genapol X-100
The term Km denotes the concentration of substrate that gives half-maximal velocity. In general, kcat refers to the number of substrate molecules converted per active site and unit of time at saturation. As a reminder, the kcat/Km is the turnover number divided by the Michaelis constant. For B1, the Km amounted to 370 ± 30 µM in [4]; 710 ± 90 µM in data set [5]; 5100 ± 300 µM in data set [6]; 710 ± 90 µM in data set [7]; 1600 ± 200 µM in data set [8]; 690 ± 100 µM in data set [9]. Moreover, the kcat in data set [4] was found to be 1049 ± 28 s⁻¹; in [5], 798 ± 25 s⁻¹; in [6], 1041 ± 14 s⁻¹; in data set [7], 1362 ± 41 s⁻¹; in [8], 212 ± 7 s⁻¹; in data set [9] it was 631 ± 21 s⁻¹. Besides, the kcat/Km is 2.88e+06 M⁻¹ s⁻¹ in data set [4]; 1.13e+06 M⁻¹ s⁻¹ in [5]; 204000 M⁻¹ s⁻¹ in data set [6]; 1.92e+06 M⁻¹ s⁻¹ in [7]; 133000 M⁻¹ s⁻¹ in data set [8]; 918000 M⁻¹ s⁻¹ in data set [9].
